Data published in article PMC6123711, “Conformational signatures in β-arrestin2 reveal natural biased agonism at a G-protein-coupled receptor” (Communications Biology, 2018).
Marks after values point to notes of the source that are not given here.

Key:
Galr2 [1] = test: Quantification of biased agonism between two pathways (operational model); type: cell-based, human; settings: for ΔΔLog(τ/KA) (bias factor), Gαq-dependent-pErk1/2/β-arrestin1: Gαq-dependent-pErk1/2 vs β-arrestin1; for ΔΔLog(τ/KA) (bias factor), SRE-Luc/clathrin:β-arrestin2: SRE-Luc vs clathrin:β-arrestin2; for ΔΔLog(τ/KA) (bias factor), SRE-Luc/β-arrestin1: SRE-Luc vs β-arrestin1; for ΔΔLog(τ/KA) (bias factor), SRE-Luc/β-arrestin2: SRE-Luc vs β-arrestin2; for ΔΔLog(τ/KA) (bias factor), Total inositol phosphate/clathrin:β-arrestin2: total inositol phosphate vs clathrin:β-arrestin2; for ΔΔLog(τ/KA) (bias factor), Total inositol phosphate/β-arrestin1: total inositol phosphate vs β-arrestin1; for ΔΔLog(τ/KA) (bias factor), Total inositol phosphate/β-arrestin2: total inositol phosphate vs β-arrestin2; for ΔΔLog(τ/KA) (bias factor), β-Arrestin-dependent-pErk1/2/β-arrestin2: β-arrestin-dependent-pErk1/2 vs β-arrestin2
Description: To determine whether differential signaling at Galr2 (Figs. 2 and 5) may be translated into biased agonism, we used the operational model of agonism (Eq. 2) to calculate the logarithm of the transduction coefficient (log(τ/KA)) for each agonist at each pathway (Table 1)[4]. We used Galanin as a reference ligand during all experiments. […] We also calculated bias factors for G-protein-dependent pErk1/2 and β-arrestins.
Quantification of bias between each pathway was performed using Galanin as a reference ligand. All incubations for the different signaling assays were performed in serum-free medium to prevent peptide degradation.
To calculate biased factors and compare agonist profiles, the dose–response data were fit to the following form of the operational model of agonism:[42]2 Y=Basal+Em-basalτ/KA^n[A]^n/[A]^nτ/KA^n+1+[A]/KA^n where Em is the maximal possible response of the system, Basal is the basal level of response, KA represents the equilibrium dissociation constant of the agonist (A), and τ is an index of the signaling efficacy of the agonist that is defined as RT/KE. RT is the total number of receptors, KE is the coupling efficiency of each agonist-occupied receptor, and n is the slope of the transducer function that links occupancy to response. One assumption of the analysis is that the transduction machinery used for a given cellular pathway are the same for all agonists, such that the Em and transducer slope (n) are shared between agonists. The data for all compounds for each pathway were fit globally, to determine values of KA and τ. Biased agonism was quantified as previously described. […] The relative bias can then be calculated for each agonist at the two different signaling pathways by subtracting the Δlog(τ/KA) of one pathway from the other to give a ΔΔlog(τ/KA) value, which is a measure of bias. […] All transduction ratios (log(τ/KA)) parameters were estimated as logarithms. All results were expressed as mean ± s.e.m. values. We performed a Brown–Forsythe test (Graph Pad Prism 7.0) to assure ourselves of equal variances between the compared parameters.

Galr2 [2] = test: β-Arrestin1/2-dependent Erk1/2 phosphorylation (Gαq/11-knockout HEK293 cells); type: cell-based, human; settings: for ΔLog(τ/KA), β-Arrestin1/2 dependent-pErk1/2: normalized to Galanin (reference agonist), in parenthesis, mean ± s.e.m. of three experiments in triplicate; for Log(τ/KA), β-Arrestin1/2 dependent-pErk1/2: western blot, 5 min stimulation, operational model (Eq. 2), mean ± s.e.m. of three experiments in triplicate (table footnote)
Excerpt: Galr2 is primarily coupled to the Gαq-protein which activates the phospholipase C/protein kinase C pathway for inositol phosphate production. We measured G-protein activation in HEK293 cells transiently expressing Galr2, using the serum response element-luciferase (SRE-Luc) gene reporter assay[10],[37] and for a more specific monitoring of Gαq-protein activity we also measured total inositol phosphate production. […] However, some differences were observed between SRE-Luc activity and total inositol phosphate production in the rank order of potency of the tested ligands. […] Phosphorylation of extracellular signal-regulated protein kinases 1 and 2 (pErk1/2) is either G-protein or β-arrestin dependent. To distinguish Gαq-protein- and β-arrestin1/2-dependent Erk1/2 signaling, we examined ligand-stimulated Erk1/2 phosphorylation in three different HEK293 cell lines, wild type, Gαq/11-knockout, and β-arrestin1/2-knockout cells. All three ligands induced high levels of Erk1/2 phosphorylation dose-dependently in wild-type HEK293 cells.
Fig. 5 Galr2 agonists display different Gαq-protein-dependent signaling and pErk1/2. The ability of increasing concentrations of agonists to induce a SRE-Luc activity and b total inositol phosphate production. c Representative western blot showing ligand-induced phosphorylation of Erk1/2 from wild-type (HEK293 WT), Gαq/11-, and β-arrestin1/2-knockout HEK293 cells expressing Galr2 (original blots are presented in Supplementary Figure 4). pErk1/2 and total Erk levels were determined at 5 min after stimulation of different concentrations of three ligands. Western blot band intensities corresponding to each concentration were quantified using Image studio ^TM Software. […] Data are the mean ± s.e.m. values of two independent experiments
pErk1/2 was measured using western blot assay. HEK293 Gαq/11 and β-arrestin1/2-knockout cells were a kind gift from Professor Asuka Inoue, Tohoku University. The cells were seeded into 6-well plates at a density of 6 × 10^5 cells per well. The next day, they were transfected using 2 μg/well of plasmid containing human Galr2 cDNA and Lipofectamine 2000, according to the manufacturer’s instructions. Before assay, the cells were washed with phosphate-buffered saline and incubated in serum-free DMEM overnight. Dose–response experiments were performed for each ligand at 37 °C. Stimulation of the cells was terminated after 5 min of agonist stimulation by removing the medium, and the addition of 250 μl cold lysis buffer to each well. Immunoblots of phospho-Erk1/2 were obtained using 8 μg of total protein and p44/42 MAPK Erk1/2 antibody (Cell Signaling Technology Inc, catalog no. 4370 S); horseradish peroxidase-conjugated goat anti-rabbit IgG was used as a secondary antibody (Thermo Fisher Scientific). […]

[3] = reference agonist Galanin, mean ± s.e.m. of three experiments in triplicate

## Galanin [reference compound]
Galr2 [1]; G-protein and β-arrestin1/2
  overall signaling at Galr2: robust signaling toward G-protein and β-arrestin1/2
Galr2 [1]; [3]
  ΔΔLog(τ/KA) (bias factor), Gαq-dependent-pErk1/2/β-arrestin1: 0.00 ± 0.22
  ΔΔLog(τ/KA) (bias factor), SRE-Luc/clathrin:β-arrestin2: 0.00 ± 0.17
  ΔΔLog(τ/KA) (bias factor), SRE-Luc/β-arrestin1: 0.00 ± 0.002
  ΔΔLog(τ/KA) (bias factor), SRE-Luc/β-arrestin2: 0.00 ± 0.02
  ΔΔLog(τ/KA) (bias factor), Total inositol phosphate/clathrin:β-arrestin2: 0.00 ± 0.19
  ΔΔLog(τ/KA) (bias factor), Total inositol phosphate/β-arrestin1: 0.00 ± 0.03
  ΔΔLog(τ/KA) (bias factor), Total inositol phosphate/β-arrestin2: 0.00 ± 0.05
  ΔΔLog(τ/KA) (bias factor), β-Arrestin-dependent-pErk1/2/β-arrestin2: 0.00 ± 0.38
Galr2 [1]; Gαq-dependent-pErk1/2 vs β-arrestin2, reference agonist Galanin, mean ± s.e.m. of three experiments in triplicate
  ΔΔLog(τ/KA) (bias factor), Gαq-dependent-pErk1/2/β-arrestin2: 0.00 ± 0.04
Galr2 [2]
  ΔLog(τ/KA), β-Arrestin1/2 dependent-pErk1/2: 0.00 ± 0.40
  Log(τ/KA), β-Arrestin1/2 dependent-pErk1/2: 6.42 ± 0.41

B1: Spexin (peptide, UniProt Q9BT56 27-116, looked up)
Spexin: APQRLLERRNWTPQAMLYLKGAQGRRFISDQSRRKDLSDRPLPERRSPNPQLLTIPEAATILLASLQKSPEDEEKNFDQTRFLEDSLLNW
modifications: Spexin
notes: endogenous peptide ligand of Galr2 and Galr3; synthesized by AnyGen
Galr2 [1]; Gαq-dependent pErk1/2 vs the two β-arrestin isoforms, relative to Galanin
  biased agonism, pErk1/2 vs β-arrestin isoforms: biased signaling toward Gαq-dependent pErk1/2 over the two β-arrestin isoforms
Galr2 [1]; [3]
  ΔΔLog(τ/KA) (bias factor), Gαq-dependent-pErk1/2/β-arrestin1: 1.10 ± 0.29^b
  ΔΔLog(τ/KA) (bias factor), SRE-Luc/clathrin:β-arrestin2: 1.88 ± 0.07^b
  ΔΔLog(τ/KA) (bias factor), SRE-Luc/β-arrestin1: 0.63 ± 0.06^b
  ΔΔLog(τ/KA) (bias factor), SRE-Luc/β-arrestin2: 0.77 ± 0.02^b
  ΔΔLog(τ/KA) (bias factor), Total inositol phosphate/clathrin:β-arrestin2: 1.84 ± 0.12^b
  ΔΔLog(τ/KA) (bias factor), Total inositol phosphate/β-arrestin1: 0.60 ± 0.09^b
  ΔΔLog(τ/KA) (bias factor), Total inositol phosphate/β-arrestin2: 0.73 ± 0.09^b
  ΔΔLog(τ/KA) (bias factor), β-Arrestin-dependent-pErk1/2/β-arrestin2: 1.40 ± 0.16^a
Galr2 [1]; relative to Galanin
  biased agonism, β-arrestin-dependent pErk1/2 vs β-arrestin2 recruitment: biased agonism was also detected toward β-arrestin-dependent pErk1/2 over β-arrestin2 recruitment
Galr2 [1]; relative to Galanin, Gαq-protein-dependent signaling vs β-arrestins and β-arrestin2–clathrin
  biased agonism: biased agonism toward Gαq-protein-dependent signaling over β-arrestins and β-arrestin2–clathrin interactions
Galr2 [2]
  ΔLog(τ/KA), β-Arrestin1/2 dependent-pErk1/2: 0.73 ± 0.13
  Log(τ/KA), β-Arrestin1/2 dependent-pErk1/2: 7.15 ± 0.14
